From US20090098175A1 (AFFINERGY, published 2009)
Where no end group is shown, it is not given here. [ ]: non-standard residue; d: D form. The star is where a group is joined. Biotin = O=C1N[C@H]2[C@H](CS[C@H]2CCCCC(=O)*)N1

T1: GDF-7 (UniProt Q7Z4P5 322-450)
T1 chain: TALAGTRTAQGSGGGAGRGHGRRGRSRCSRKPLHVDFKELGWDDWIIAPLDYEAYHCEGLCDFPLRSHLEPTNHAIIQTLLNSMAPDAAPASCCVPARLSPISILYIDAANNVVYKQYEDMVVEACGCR

T2: TGF-β3 (UniProt P10600 301-412)
T2 sequence (looked up): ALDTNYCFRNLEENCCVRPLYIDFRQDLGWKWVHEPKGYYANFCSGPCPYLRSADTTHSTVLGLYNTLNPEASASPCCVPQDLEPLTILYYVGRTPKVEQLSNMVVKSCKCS

T3: GDF-7 (UniProt Q7Z4P5 322-450, limits assumed)
T3 construct: also called BMP-12; growth and differentiation factor 7
T3 sequence (looked up): T1 chain

T4: GDF-5 (UniProt P43026 382-501)
T4 construct: also called BMP-14
T4 sequence (looked up): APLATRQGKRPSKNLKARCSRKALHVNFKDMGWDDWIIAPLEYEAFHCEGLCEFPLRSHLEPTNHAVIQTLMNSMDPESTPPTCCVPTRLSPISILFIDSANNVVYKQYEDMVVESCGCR

T5: BMP-6 (UniProt P22004 382-513, limits assumed)
T5 construct: also called bone morphogenetic protein 6
T5 sequence (looked up): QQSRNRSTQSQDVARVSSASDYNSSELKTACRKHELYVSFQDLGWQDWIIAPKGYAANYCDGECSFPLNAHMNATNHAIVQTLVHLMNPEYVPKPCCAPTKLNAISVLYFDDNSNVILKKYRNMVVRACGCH

T6: BMP-5 (UniProt P22003 317-454, limits assumed)
T6 construct: also called bone morphogenetic protein 5
T6 sequence (looked up): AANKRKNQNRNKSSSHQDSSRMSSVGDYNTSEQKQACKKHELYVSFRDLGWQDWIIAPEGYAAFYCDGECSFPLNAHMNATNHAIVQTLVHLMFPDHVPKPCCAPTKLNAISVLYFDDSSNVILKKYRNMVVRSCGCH

B1: 780P (peptide)
chain 1: SWWGFWNGSAAPVWSR
chain 2: SSGGVGGWALFETLRGKEVSR
chain 3: GSSGK(Biotin)
modifications: not fully specified (some residues, C-terminus); also: chains 1-3 joined as one linear peptide (67-GSSG-2-GSSGK)
B2: SEQ ID NO 3 (peptide)
peptide: [code s][code s]VAEWALRSWEGMRVGEA[code s][code r]
modifications: also: biotinylated, site not given here
B3: SEQ ID NO 1 (peptide)
peptide: [code s][code s]GPREIWDSLVGVVNPGW[code s][code r]
modifications: also: biotinylated, site not given here
B4: SEQ ID NO 2 (peptide)
peptide: SSGGVGGWALFETLRGKEVSR
modifications: not fully specified (residues 1, 2, 20, 21); printed as ssGGVGGWALFETLRGKEVsr; also: biotinylated, site not given here

Key:
GDF-7 [1] = biological target: T1, GDF-7; test: GDF-7 capture on sutures
TGF-β3 = biological target: T2, TGF-β3; test: plate assay: biotinylated peptide on streptavidin plate, growth factor titrated, antibody/AP detection
Method: (§1) Briefly, peptides comprising an amino acid sequence of each of SEQ ID NOs: 1-3 were biotinylated to facilitate immobilization on streptavidin-coated 96-well plates. The microtiter plates were coated with streptavidin by adding 50 μl of a 10 μg/ml streptavidin solution in 0.1 M NaHCO₃, and incubating the plates for at least 3 hours. The plate wells were blocked by adding 150 μl of a 1% BSA solution in 0.1 NaHCO₃, and the plates were stored at 4° C. until needed. Before use, the streptavidin plates were washed extensively in buffer-T. Peptides were then added at 20 pmol per well in 100 μl of high-salt buffer-T (containing 500 mM NaCl), and then incubated for 1 hour at room temperature with shaking. 150 μl of 0.5 mM biotin in H₂O was added to block the remaining streptavidin sites, and plates were incubated for an additional hour. Plates were then washed with TBS-T to remove the excess biotin and peptide. Serial dilutions of growth factor (including fibrous connective tissue-inducing growth factors GDF-7, GDF-5, BMP-2, and BMP-6,; and growth factors other than fibrous connective tissue-inducing growth factors, such as BMP-5, TGF-β, TGF-β3, or PDGF-BB) in high-salt buffer-T were added (100 μl) to each well, representing a range of concentrations between 0.01 nM and 100 nM. Plates were incubated for 1 hour at room temperature with shaking prior to washing several times with TBS-T. Growth factors were then detected using 100 μl of the appropriate dilutions of primary antibodies specific for the growth factor being detected. After washing with buffer-T, 100 μl of alkaline phosphatase-conjugated secondary antibody was added to each well and incubated at room temperature for 45 minutes. Excess secondary antibody was removed by repeated washes with buffer-T, and the amount of alkaline phosphatase remaining in the well was detected using a pNPP (para-nitrophenylphos-phate) colorimetric enzymatic assay. The amount of growth factor captured by the peptides was determined by measuring the absorbance at 405 nm of the colored product of the alkaline phosphatase reaction.

PDGF-BB = biological target: T7, PDGF-BB (UniProt P01127 82-190); test: as above
T7 construct: also called platelet-derived growth factor
Method: as §1

TGF-β1 = TGF-β1 (UniProt P01137 279-390); test: as above
Method: as §1

GDF-7 [2] = biological target: T3, GDF-7; test: plate assay: biotinylated peptide on streptavidin plate, growth factor titrated 0.01-100 nM, antibody/AP detection
Method: as §1

GDF-5 = biological target: T4, GDF-5; test: as above
Method: as §1

BMP-2 = biological target: T8, BMP-2 (UniProt P12643 283-396); test: as above
T8 construct: also called bone morphogenetic protein 2
Method: as §1

BMP-6 = biological target: T5, BMP-6; test: as above
Method: as §1

BMP-5 = biological target: T6, BMP-5; test: as above
Method: as §1

Sequence of TGF-β1 (P01137 279-390 limits assumed): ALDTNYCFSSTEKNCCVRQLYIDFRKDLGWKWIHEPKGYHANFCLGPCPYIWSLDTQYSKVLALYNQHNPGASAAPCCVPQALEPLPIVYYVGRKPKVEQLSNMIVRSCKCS
T7 sequence (P01127 82-190 limits assumed): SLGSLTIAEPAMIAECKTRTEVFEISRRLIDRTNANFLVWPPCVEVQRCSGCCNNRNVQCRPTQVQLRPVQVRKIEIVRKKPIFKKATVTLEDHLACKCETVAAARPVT
T8 sequence (P12643 283-396 limits assumed): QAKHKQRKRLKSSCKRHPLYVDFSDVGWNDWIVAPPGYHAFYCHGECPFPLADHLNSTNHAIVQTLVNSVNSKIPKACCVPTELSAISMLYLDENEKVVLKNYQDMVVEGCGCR

Row | Binder | EC50 (GDF-7 [1]) [µM] | binding result (TGF-β3) | binding result (PDGF-BB) | binding result (TGF-β1) | EC50 (GDF-7 [2]) [µM] | EC50 (GDF-5) [µM] | EC50 (BMP-2) [µM] | EC50 (BMP-6) [µM] | EC50 (BMP-5) [µM]
1 | B1 | > 0.1 | – | – | – | – | – | – | – | –
2 | B2 | – | no binding (tested: growth factor 0.01 nM to 100 nM) | no binding (tested: growth factor 0.01 nM to 100 nM) | no binding (tested: growth factor 0.01 nM to 100 nM) | < 0.001 | < 0.01 | < 0.01 | < 0.01 | < 0.1
3 | B3 | – | no binding (tested: growth factor 0.01 nM to 100 nM) | no binding (tested: growth factor 0.01 nM to 100 nM) | no binding (tested: growth factor 0.01 nM to 100 nM) | < 0.001 | < 0.01 | < 0.01 | < 0.01 | < 0.1
4 | B4 | – | no binding (tested: growth factor 0.01 nM to 100 nM) | no binding (tested: growth factor 0.01 nM to 100 nM) | no binding (tested: growth factor 0.01 nM to 100 nM) | < 0.001 | < 0.01 | < 0.01 | < 0.01 | < 0.1
